Usually Kd stands for the free concentration of one partner at which half of the binding sites on the other are occupied at equilibrium, for simple one-to-one binding. A word on the IC50: it is the point on the concentration scale where inhibition reaches its midpoint.

Common to all, as to conditions: source organism: Hepatitis B virus
The target of one assay is HLA-A*02:06. In words: IEDB peptide-MHC binding, purified MHC/competitive/radioactivity; filed as Kd, often an IC50 or EC50 that approximates it; ≥ and ≤ were set here for values at or beyond the usual limits of such assays.
In a further assay the target is HLA-B*35:01. In words: IEDB peptide-MHC binding, purified MHC/competitive/radioactivity; ≥ and ≤ were set here for values at or beyond the usual limits of such assays.
The target of assay [1] is HLA-B*51:01. Described as above.
A further assay concerns the target HLA-A*31:01. In words: IEDB peptide-MHC binding, purified MHC/competitive/radioactivity; filed as Kd, often an IC50 or EC50 that approximates it; ≥ and ≤ were set here for values at or beyond the usual limits of such assays.
The next assay addresses HLA-A*33:01. Described as above.
Assay [2] concerns the target HLA-A*03:01. The assay is described as above.
For assay [3], the target named is HLA-A*68:01. Described as above.
Assay [4] concerns the target HLA-B*51:01. The assay is described as above.
The next assay deals with HLA-B*53:01. In words: IEDB peptide-MHC binding, purified MHC/competitive/radioactivity; ≥ and ≤ were set here for values at or beyond the usual limits of such assays.
The target of assay [5] is HLA-A*03:01. The assay is described as above.
The target in another assay is HLA-A*02:03. In words: IEDB peptide-MHC binding, purified MHC/competitive/radioactivity; filed as Kd, often an IC50 or EC50 that approximates it; ≥ and ≤ were set here for values at or beyond the usual limits of such assays.
In assay [6] the target is HLA-A*68:01. In words: IEDB peptide-MHC binding, purified MHC/competitive/radioactivity; ≥ and ≤ were set here for values at or beyond the usual limits of such assays.

GLLGWSPQA: the Kd with HLA-A*02:06 was found to be 1.32 µM.
With IPIPSSWAF, the IC50 with HLA-B*35:01 was determined as 0.0026 µM; with HLA-B*51:01 [1] it was 0.22 µM.
As to HTLWKAGILY, the dissociation constant (Kd) with HLA-A*31:01 was not below 25 µM.
On to PVNRPIDWK, for which the Kd with HLA-A*31:01 and with HLA-A*33:01 was not below 25 µM throughout.
Consider GTDNSVVLSR, for which the results for the Kd in the assay with HLA-A*03:01 [2] and in the assay with HLA-A*68:01 [3] were not below 10 µM and not below 20 µM, respectively.
For TPARVTGGVF, the Kd with HLA-B*51:01 [4] is not below 25 µM.
As for YMDDVVLGAK, the Kd with HLA-A*31:01, with HLA-A*33:01 and with HLA-A*68:01 [3] was not below 25 µM in each case.
YPALMPLYA: the IC50 was determined as 0.15 µM with HLA-B*35:01, 0.162 µM in the assay with HLA-B*51:01 [1] and 0.664 µM with HLA-B*53:01.
In the case of RVTGGVFLVDK, in the assay with HLA-A*03:01 [5], the IC50 is 0.579 µM. In addition, the Kd with HLA-A*31:01, with HLA-A*33:01 and with HLA-A*68:01 [3] was not below 25 µM in each case.
For KVGNFTGLY, the Kd with HLA-A*31:01, with HLA-A*33:01 and with HLA-A*68:01 [3] was not below 25 µM each time.
Take MMWYWGPSLY: the Kd with HLA-A*31:01, in the assay with HLA-A*33:01 and with HLA-A*68:01 [3] was not below 25 µM each time.
Regarding YMDDVVLGA, the Kd is 4.17 µM in the assay with HLA-A*02:03 and not below 25 µM in the assay with HLA-A*02:06.
For the sequence VTGGVFLVDK, the Kd in the assay with HLA-A*31:01 was not below 25 µM.
Turning to TLWKAGILY, the Kd in the assay with HLA-A*33:01 and in the assay with HLA-A*68:01 [3] was not below 25 µM each time.
Consider GTDNSVVLSRK, for which, in the assay with HLA-A*03:01 [5], the IC50 is 0.786 µM. The Kd with HLA-A*31:01, with HLA-A*33:01 and in the assay with HLA-A*68:01 [3] was not below 25 µM throughout.
Take VVDFSQFSR: the IC50 with HLA-A*68:01 [6] is 0.32 µM.
With DPSRGRLGL, in the assay with HLA-B*51:01 [4], the Kd is not below 25 µM.

The record behind these values is the Immune Epitope Database (IEDB).
